Measurements published in publication PMC8549804 (Chemical Science, 2021).

B1: gp32-ΔCTD (amino acids 1-254) (domain or fragment, bacteriophage T4, UniProt P03695 1-254, looked up)
chain: MFKRKSTAELAAQMAKLNGNKGFSSEDKGEWKLKLDNAGNGQAVIRFLPSKNDEQAPFAILVNHGFKKNGKWYIETCSSTHGDYDSCPVCQYISKNDLYNTDNKEYSLVKRKTSYWANILVVKDPAAPENEGKVFKYRFGKKIWDKINAMIAVDVEMGETPVDVTCPWEGANFVLKVKQVSGFSNYDESKFLNQSAIPNIDDESFQKELFEQMVDLSEMTSKDKFKSFEELNTKFGQVMGTAVMGGAAATAAKK
B2: bacteriophage T4 gene product 32 (gp32) (natural protein)
chain: MFKRKSTAELAAQMAKLNGNKGFSSEDKGEWKLKLDNAGNGQAVIRFLPSKNDEQAPFAILVNHGFKKNGKWYIETCSSTHGDYDSCPVCQYISKNDLYNTDNKEYSLVKRKTSYWANILVVKDPAAPENEGKVFKYRFGKKIWDKINAMIAVDVEMGETPVDVTCPWEGANFVLKVKQVSGFSNYDESKFLNQSAIPNIDDESFQKELFEQMVDLSEMTSKDKFKSFEELNTKFGQVMGTAVMGGAAATAAKKADKVADDLDAFNVDDFNTKTEDDFMSSSSGSSSSADDTDLDDLLNDLC
modifications: disulfur monoxide moiety at Cys302 (C-terminal, attributed to the intein reaction)

Target: the molecule itself
Assay: native MS

Protein | stoichiometry N
B1 | 2
B2 | 2
